The supplement of paper PMC10567573

B1: SLC2A12 (parent)
chain: TRIMIGLTLVFFVQITGQPNILFY
B2: ZNF193 (parent)
chain: QKRYHCKECGKVFSQSAGLIQHQR

Variants of: B1
Experiment: protein stability index of a GFP-peptide fusion (GPS, HEK-293T) (PSI 1-6); higher = more stable
Conditions: c terminus: a fixed tail appended
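Also: lentivirally expressed fusions sorted by FACS into six bins by GFP to DsRed ratio, PSI derived from sequencing read proportions per bin multiplied by bin number.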

Variant | protein stability index
G6C | 2.87
G6D | 2.73
V10G | 3.27
V10T | 3.36
V10Y | 2.56
V10H | 3.39
P19Y | 2.23
P19G | 2.96
P19S | 2.39
N20A | 3.57
N20R | 2.67
I15Y | 3.97
I15R | 2.93
I15S | 2.98
I15Q | 3.39
G17N | 3.03
G17V | 2
G17M | 3.31
Q14G | 3.68
Q14I | 2.88
Q14W | 4.35
I21H | 2.49
I5Y | 2.65
Q18C | 2.86

Variant | protein stability index
Q18S | 3.39
T8Y | 2.64
T8G | 2.77
T8S | 2.71
T8D | 2.01
T8P | 4.51
M4S | 3.75
M4H | 2.79
Y24C | 3.19
Y24E | 3.1
V13S | 2.7
V13Y | 3.14
V13N | 3.86
V13P | 3.01
V13Q | 2.33
I3K | 2.94
T16I | 4.14
T16S | 3.65
T16E | 2.95
L7A | 3.65
R2Q | 4
R2K | 2.82
R2M | 4.67
R2G | 3.53

Variant | protein stability index
R2A | 3.31
L9W | 2.24
L9A | 3.04
T1S | 3.37
T1Y | 5.08
T1A | 2.48
F12Q | 3.16
F12V | 3.31
F12N | 3.88
F11G | 2.78
F11C | 3.27
F11R | 2.16
F23D | 2.29
F23T | 2.38
L22C | 3.96
L22N | 3.01
L22W | 2.65
L22D | 3.15
L22M | 2.97
L22E | 3.11
L22K | 1.94
L22H | 2.65
L22S | 3.01

Variants of: B2
Experiment: as above
Conditions: c terminus: a fixed tail appended

Variant | protein stability index
Q23M | 3.13
Q23L | 2.69
Q23D | 2.29
Q23N | 2.36
Q23W | 1.97
Q23V | 2.37
Q23A | 2.5
Q23K | 3.36
Q23S | 2.54
Q23T | 2.51
Q23G | 2.07
Q23F | 2.05
Q23P | 1.74
Q23H | 2.97
Q23E | 2.55
Q23I | 2.57
Q23Y | 2.4
Q23R | 2.85
Q23C | 2.81
H22R | 1.62
H22I | 1.73
H22Q | 2.1
H22P | 1.64
H22N | 1.67

Variant | protein stability index
H22L | 1.75
H22C | 2.04
H22K | 2.14
H22E | 1.59
H22V | 1.33
H22A | 1.16
H22G | 1.41
H22Y | 1.5
H22D | 2.1
H22S | 1.9
H22M | 1.84
H22T | 2.05
H22W | 1.99
H22F | 2.66
L19Y | 2.42
Q21L | 2.57
Q21M | 2.55
Q21H | 2.88
Q21D | 3.82
Q21T | 2.61
Q21E | 3.7
Q21W | 2.44
Q21Y | 2.21
Q21P | 2.08

Variant | protein stability index
Q21G | 2.67
Q21K | 2.6
Q21C | 3.06
Q21V | 2.37
Q21N | 3.02
Q21I | 2.1
Q21F | 1.91
Q21R | 2.69
Q21A | 3.2
Q21S | 2.47
I20R | 3.5
I20K | 3.26
I20P | 2.27
I20D | 3.02
I20G | 2.38
I20F | 2.45
I20V | 3.22
I20H | 3.31
I20W | 2.4
I20E | 2.91
I20Q | 2.83
I20C | 3.95
I20L | 3.08
I20T | 3.09

Variant | protein stability index
I20Y | 2.98
I20M | 2.86
I20S | 2.69
I20N | 2.5
I20A | 3.06
R24W | 2.1
R24G | 3.05
R24E | 3.53
R24S | 2.43
R24A | 2.83
R24K | 3.65
R24H | 3.44
R24Q | 2.48
R24I | 1.96
R24C | 4.52
R24P | 2.44
R24F | 2
R24D | 3.33
R24Y | 2.5
R24T | 2.33
R24L | 1.43
R24M | 2.44
R24V | 2.28
R24N | 2
